# Test results published in US20140356376.
# B1: staphopain A (protein)
# chain: YNEQYVNKLENFKIRETQGNNGWCAGYTMSALLNATYNTNKYHAEAVMRFLHPNLQGQQFQFTGLTPREMIYFEQTQGRSPQLLNRMTTYNEVDNLTKNNKGIAILGSRVESRNGMHAGHAMAVVGNAKLNNGQEVIIIWNPWDNGFMTQDAKNNVIPVSNGDHYQWYSSIYGY
# Key:
# [1] = biological target: thio-S4497 HC v1-MP-LAFG-PABC-(piperazinoBOR) AAC-193
# [2] = biological target: thioFAB 4497 MP-LAFAA-QSY7
# [3] = biological target: thioFAB 4497 MP-LAFGA-QSY7
protein,measurement,setting,value
B1,Percent cleavage pH 5,[1],100%
same,Percent cleavage pH 7.2,[1],46%
same,Percent cleavage pH 7.2,[2],23%
same,Percent cleavage pH 7.2,[3],38%
